Experimental data as given in the nanobody polyreactivity screen of Harvey et al. (2022).

Assay: yeast display, Sf9 membrane polyspecificity reagent, FACS + sequencing; frameworks hold sequencing errors
Method in brief: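 Genes from sorted yeast were amplified by colony PCR, read by MiSeq 2 × 250 sequencing and filtered on CDR length. These cells carried a synthetic nanobody library in Saccharomyces cerevisiae BJ5465 and were sorted by FACS into low and high (top ~1%) gates on anti-HA and streptavidin fluorescence. Polyreactivity is labelled according to the gate of origin.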

| Sequence | polyreactivity (PSR sort gate) |
| --- | --- |
| QVQLVESGGGLVQAGGSLSLSCAASGGTFSPYAMGWYRQAPGKERELVAITSSDSTNYADSVKGRFTISRDNAKNTVYLQMNSLKPEDTAVYYCNAGYPIPEDYLAYGNFDYWGQGTQVTVSS | low polyreactivity |
| QVQLVESGGGLVQAGGSLRLSCAACGIIFEYNAMGWYRQAPGKVRELVASIDSGGSTNYADSVKGRFTISRDNAKNTVYLQKNSLKPEDTAVYYCNADDTTVSPWYYYYQSYYWGQGTQVTVSS | low polyreactivity |
| QVQLVESGGGLGQAGGSLRLSCASSGFTFVPYAMVWYSPAPGKERELVAAIDFDDATTYYADSVKGRFTISRDNAKNTVYLQMNSMKPEDTALYYCAADGFYAPDDAPFYYWGQGTQVTVSS | high polyreactivity |
| QVQLVESGGGLVQAGGSLRLSCAASGITFNYYTMVWYRQAPGKERELVARITISGGSTYYADSVKGRFTISRDNAKNTVDFQMYSLKPEDTAVYYCNVRLYGYRHDYWGQGTQVTVSS | high polyreactivity |
| QVQLVESGGGLVHAGGSLRLSCAASGFILRSYGMGWYRQAPGKERELVAAITRGGSTYYADSVKGRFTISRDNAKNTVYLQMNSLKPEDTAVYYCAARTRYYSQQFDYWGQGTQVTVSS | high polyreactivity |
| QVQLVESGVGLVQAGGTLRLSCAASGIIISRYTMGWYRQAPGKERELVAAITSSGITYYADSVKGRFTISRDNAKNTVYLQLNSLKPEDTAVYYCARETYGDYVHYDYWGLGTQVTVSS | low polyreactivity |
| QVQLVESGGGLVQAGGSLRLSCAASGRIFGIYAMGWYRQAPGKERELVARITGGGSTNYADSVKARFTISRDNEKNTVYLQMNSLKPEDTAVYYCASTVRRIVGNITRYDYWGQGTQLTVSS | low polyreactivity |
| QVQLVESVGGLVQAGGSLRLSCAASGSIFVKYAMGWYRQAPGKECEMVPAISGSGGSTYYADSVKGRFTISRDNAKNTVYLQMNSLKQEDTAVYYCAADDYFYAGTLPGWWYDYWGQGTQVTVSS | low polyreactivity |
| QVQLVESGGGLVQAGGSLRLTCAASGSIFISYHMGWYRQAPGKERELVAAIRSRVGSTYYSDSVKGRFTISRDNAKNPVYFQMNCLKPEDPAVYYCAAERSFSRFTTYDYWGQGTQVTVSS | low polyreactivity |
| QVQLVESGGALVQAGGSLRLSCAASGSTFDDNAMGWYRQAPGKERELVASITYRGGSTYYADSVKGRFTISRDNAKNTVYLQMNSLKPEDTAVYYCAKGHYFKYDYWGQGTQVTVSS | low polyreactivity |
| QVQLVESGGGLVQAGGSLRLSCAASGRTFYYNTKGWYRQAPGKERELVASISGSGGRTYFADSVKGRFTISRDTAKNTVYLQMNSLKPEDTAVYYCASSRARRSRYILDYWGQGTQVTVSS | high polyreactivity |
| QVQLVESGGGLVQAGGSLRLSCAASGRTFPANTMGWYRPAPGKERELVAAISSRGGSTYYADSVKGRFTISRDNAKKTVYLQMNSLKPEDTAVYYCNAYLYFPRYDYWGQGTQVTVSS | high polyreactivity |
| QVQLVESAGGLVQAGGSLRLSCAASGRNFYYYAMGWYRQAPGKERELVAAISIGGITYADSVKGRFTISRDNAKNTVYLQMNRLKPEDTAVYYCAATARQSRGRYYWGQGTQVTVSS | low polyreactivity |
| QVQLVESGGGLVQAGGRLRLSCAASGLTFASYALGWYRQAPGKERELVARISRSGGSTYYADSVKGRFTISRDNAKNTVYLQMNSLIPEDTAVYYCAADYIFRRYPVGGIYDYDYWGQGTQVTLSS | high polyreactivity |
| QVQLVESGGGLVQAGGSLRLSCAASGRTFYGYAMGWYRQAPGKERELVAAITRSGGSTYYADSVKGRFTISRDNAKNTVYLQMNSLKPEDTAVYYCAAGGQARHDYWGQGTQVTVSS | low polyreactivity |
| QVQLVESGGGLVQAGGSLRLICAASGMTFYSYAMGWYRQAPGKERELVAAISATGGRTYYADSEKGRFTISRDNAKNTVYLQMNSLKPEDTEVYYCAAKSSYEYGYWGQGTQVTVSS | high polyreactivity |
| QVQLVESGGGLVQAGGSLRLSCAASGRIFRYYAMGWYRQAPGKETELVAAISKSGGGTFYADSVKGRFTISRDNAKNPVYLQMNSLKPEDTAVYYCAARDKGLGKHDYWGQGTQVTVSS | high polyreactivity |
| QVQLVESGGGLVQAGGSLRLSCAASGRTSLAYAMGWYRKATGKERELVAGITSGGNTNYADSVKGRFTISCDNAKNSVYLQMNRLKPEDTAVYYCNKKKRWQWYSESVLDELGFYSWGQGTQVTVSS | low polyreactivity |
| QVQLVESGGGLVQAGGSLRLSCAASGFTFTDYAMGWYRQAPGKERELVAAITSGDSTYYADSVKGRFTISRDNAKNTVYLQMNSLKPEDTAVYYCNKLRRSPNSQYYYWGQGTQVTVSS | high polyreactivity |
| QVQLVESGGGLVQAGGSLRLSCAASGSILRKYAMGWYRQAPGKERELVAAISWSGGSTYYADSVKGRFTISRDNAKNTVYVQMNSLKPEDTAVYYCNRDGLSRPYYYWGQGTQVTVSS | high polyreactivity |
| QVQLVESGGGLVQAGGSLRLSSAASGRIFGTYAMGWYRQAPGKERELVAAITSGGRTYYADSVKGRFTISRDNAKNTVYLQMNSLKPEDNAVYYCARPSGYRKYYYWGQGTQVTVSS | high polyreactivity |

| Sequence | polyreactivity (PSR sort gate) |
| --- | --- |
| QVQLVESGGGLVQAGGSLRLSCAASGSIFWSYGMGWYIQAPGKERELVASTRYADSVKERFTISRDNAKNTVYLLMNSLKPEDTAVYYCAADVWTLDPDEYDYWGQGTQVTVSS | low polyreactivity |
| QVQLVESGGGLVHAGGSLRLSCAASGSIFSWYDMGWYRQAPGKERELVADISSGGSTNYADSVKGRFTISRDNAKNTVYLQMNSMKPEDTAVYYCNARLGYLYDYWGQGTQVTVSS | low polyreactivity |
| QVQLVESGGRIVQAGGSLRLICAASGRIFVRNAMGWYRQAPGKERELVAAITTSGGRTYYADSVKGRFTISRDNAKNTVYLQMNSLKPEDTAVYYCAADTRYRNYPYYYWGQGTQVTVSS | high polyreactivity |
| QVQLVESGGCLVQAGGSLRLSCDAYGSTFDDNAMGWYRQAPGKERELVAGISTNGGSTSYADSVKGRFTISRDNAKNTVYLQMNSLKPEDTAVYYCAKGLYVHFDYWGQGTQVTVSS | low polyreactivity |
| QVQLVESGGGLVQAGGSLRLTCAASGRNFPAYVMGWYRQAPGKERELVAGITSASSTYYADSVKGRFTISRDNAKNTVYLQMNSLKPEDTAVYYCAAVGYSVRQRYDYWGQGSQVTVSS | high polyreactivity |
| QVQLVESGGGLVQAGGSLRLSCAASGSTFDYNAMGGYRQAPGKERELVAAISRGGNTYYADSVKGRFTISRDNAKNTVYLQMNSLKPEDTAVYYCAKDSYGSYRFVRNRQKAYGYWGQGTQVTVSS | low polyreactivity |
| QVQLVESGGGLVQAGGSLRLSCAASGRILWDYAMGWYRQAPGKERELVAAISTSSGSTYYADSVKGRFTISRDNAKNTVKLQMNSLKPEHTAVYYCAADNDYSPPWFEYWGQGTQVTVSS | low polyreactivity |
| QVQLVESGGGLVQAGGSLRLSCAASGFIFYGYAMGWYRQAPGKERELVAGISTGGSTNYADSVKGRITISRDNAKNTVYLQMNSLKPEDTAVYYCAVVDVEEHVGHWGQGTQVTVSS | low polyreactivity |
| QVQLVESGGGLVQAGGSLRLSCAASGRIFKLYAMGWYRQAPGKERELVAAISTSGGSTYYADSVKGRFTISRDNAKNTVYLQMNSLKPEDTAVFYCAADPLSGYDYWGQGTQVTVSS | high polyreactivity |
| QVQLVESGGGLVQAGGSLRLSCAASGFTFSFYSMGWYRQAPGKERELVASISDSDGITFYADSVKGSFTISRDNAKNTVYLQMNSLKPEDTAVYYCAADVAIAIPFSYDYWGQGTQVTVSS | low polyreactivity |
| QVQLVESGGGLVQAGGSLRLSCAASGFTFTYYTMGWYRPAPGKERELVAGISRSGGSTYYADSVKGRFTISRDNAKNTVYLQMNSLKPEDTAVYYCFPGKTRLYGYWGQGTQVTVSS | high polyreactivity |
| QVQLLESGGGLVQAGGSLRLSCAASGSTFGFYAMGCYRPAPGKERELVAAISKSGDITYYADSVKGRFTNSLDNAKNTVYLQMNSLKPEDTAVYYCADRYGYLDNSIYVYWGQGTQVTVSS | high polyreactivity |
| QVQLVESGGGLVQAGGSLRLSCAASGSTFRSYAMGWYRQSPGKERELVAAISTRGGSTYYADSVKGRFTISRDNAKNTVYLQMNSLKPEDTAVYYCAVEIVWAYGPTDYYYWGQGTQVTVSS | high polyreactivity |
| QVQLVESGGGLVQAGGSLRLSCAASGRTIDLNAMGWYRQAPGKERELVAAITSSGSTNYADSVKGRFTISRDNAKNTVYLQMNSLKPDDTAVYYCNKDPIYSAEYWVGSVGFDYWGQGTQVTVSS | low polyreactivity |
| QVQLQVRGGDLVQAGGSLRLSCAASGTIYRLTTMGWYRQAPGKEREFVAAITDGGNTNYADSVKGRFTISRDNAKNTVYLQMICLKPEDTAVYYCAVLFSDDAYYAYWGQGTQVTVSS | low polyreactivity |
| QVQLVESGGGLVQAGGSLRLSCAASGNNFLLYAMVWYRQAPGKEREFVAAITWIAGSTYYADSVKGRFTISRDNAKNTVYLQMNSLKPEDTAVYYCAADSYWYDMDYWGQGTQVTVSS | high polyreactivity |
| QVQLVESGGGLVQAGGSLSLSCASSGSTLTYYAMGWYRQEPGKEREFVAAIRWSSGNTYYADSVKGRFTISRDNAKNTVYLQMNSLKPEDTAVYYCAKERRYTGRRSYEYDYWGQGTQVTVSS | low polyreactivity |
| QVQLVESGGGLVQAGGRLRLSCAASGRIFIKNAMGWYRQAPGKESELVAAISDSGDSTYYAVSVKGRFTISRDNAKNTVYLQMNSLKPEDTAVYYCAADGADHRSEMYYWGQGTQVTVSS | low polyreactivity |
| QLQLQESGGGLVQAGGSLRLSCAASGSISRMDYMAWYRQASGKERELVAAIDNGSTTYYADSVKGRLTISRDNAKYTVYLQMNSLKPEDSAVYFCAAVRGRGGTHAYWGQGTQVTVSG | low polyreactivity |
| QVQLVESGGGLVQAGGSLRLSCAASGSTFLSNAMGWYRQAPGKERELVAAITIGGSTNYADSVKGRFTISRDNAKNTVYLQMNSLKPEDTAFYFCAADWYYDYAELTRDYDYWGQGTQVTVSS | low polyreactivity |
